These results are taken from the RNAGym collection of RNA variant scans (doi:10.7554/elife.90254).

First the molecules themselves.
B1: LINE1-full (parent)
chain: UACGUAGGUGGUUUUCCCCUGAUAGUGCUAAGGGGGCCUGGAAGUUUGGACUGGGCAGAGCUCAACACAGCGUGGCAAAGUGGCUGUGGCUAGACUGCCUCUCUGGAUUCCUCGUCACUCAGCAGGGCAUCUCUGAGAGAAAUGCC

The variants in this data set derive from B1. Put plainly: self-cleavage, relative activity (ratio to wild type); higher = more cleavage; in vitro, sequencing; the parent is a self-cleaving ribozyme.
Regarding A31U A136U, the self-cleavage was 0.55. For the variant G32A U115C, the self-cleavage was 0.95. For the variant G32A U115A, the self-cleavage worked out at 1.5. With A31G A92U, the self-cleavage was found to be 0.91. The value for G32A U39C was 1.07; that for G32C A67G was 0; that for A30G A141G was 1.26. For A30G U102C the value was 1.15; for A30G G88C, 0.44. The value for U29G U96C was 0.67. Regarding U29G U96A, the self-cleavage stood at 0.06.

For the variant U29G C113U, the self-cleavage stood at 0.66.

For A31G G82A, the self-cleavage came out at 2.09. G32A G34A: the self-cleavage stood at 0.73.

Take A30G C38U: the self-cleavage is 1.2. Turning to A31G A67G, the self-cleavage is 0.5.

As to A30U C56A, the self-cleavage is 0.09. The value for A31U U87A was 0.14; that for A31C U45G was 0. For A30G A77U, the self-cleavage came out at 0.71.

Regarding A30C G41U, the self-cleavage was found to be 1.52. In the case of A31U C146A, the self-cleavage turned out to be 0.88.

With A31U C146U, the self-cleavage amounted to 0.94. With A31U U85G, the self-cleavage was 0.15.

In the case of U29G U47A, the self-cleavage was found to be 1.41.

A30U A43C: the self-cleavage came out at 1.57. Take A30U A43U: the self-cleavage was found to be 0.58.

On to G32A A50G, for which the self-cleavage came to 0.93.

Regarding A30G G44C, the self-cleavage turned out to be 0.8. A30U U100A: the self-cleavage came to 0.9. Take A30U G48U: the self-cleavage was found to be 0.71. Regarding A30C A69G, the self-cleavage was found to be 0. Take A31U U112C: the self-cleavage turned out to be 1.27. Turning to A30C U96C, the self-cleavage stood at 0.39. As for A30G U115A, the self-cleavage came out at 1.17.

A30G G126U: the self-cleavage turned out to be 0.96.

Take A31U U96A: the self-cleavage turned out to be 0.07. A31U U96C: the self-cleavage worked out at 0.23. For A31U U119C the value was 1.62.

Consider A30G A65G, for which the self-cleavage was 0.07. On to A31G A64U, for which the self-cleavage was determined as 0.48. Regarding A31G G135A, the self-cleavage was 1.09. Regarding A30U U130C, the self-cleavage was determined as 1.05. For the variant A30U U62C, the self-cleavage was 0.07. Consider G32U U115A, for which the self-cleavage amounted to 1.04. For A31U G86A, the self-cleavage is 0.05. U29G U134A: the self-cleavage worked out at 1.41. As for A30U U47A, the self-cleavage worked out at 1.15.

Turning to G32C A42U, the self-cleavage came out at 1.67. For the variant A30G G105C, the self-cleavage stood at 0.25.

Consider A30G C120U, for which the self-cleavage came to 1.53.

G32A U46C: the self-cleavage turned out to be 1.19.

In the case of A31G A79G, the self-cleavage is 1.23.

Turning to A31G U96A, the self-cleavage stood at 0.11. As for A31G U96C, the self-cleavage was found to be 0.16.

Consider A31G A69U, for which the self-cleavage is 0.12. As for A31U A94G, the self-cleavage turned out to be 0.36.

Take A30G U45A: the self-cleavage was found to be 1.53. In the case of G32C U109A, the self-cleavage was determined as 1.56.

Regarding A31U U46G, the self-cleavage is 1.67.

In the case of A30G A69U, the self-cleavage was determined as 0.19. The value for A31C U85C was 0.54; that for G32A A77G was 1.56; that for A30U A65C was 0.1. The value for A30U A65G was 0.06. Consider A30G G97A, for which the self-cleavage turned out to be 0.42. Regarding G32C A138G, the self-cleavage came to 0.84. For the variant A30U C90G, the self-cleavage was determined as 0.09. For A31G U100C the value was 1.29; for A30G C63A, 0.3. For the variant A30G C63U, the self-cleavage was found to be 0.51. Consider A31G U119A, for which the self-cleavage was found to be 1.39. With A31G U119C, the self-cleavage was determined as 1.94. For A31U A59G the value was 0.14; for A31U A59U, 0.39; for A31C A142G, 0.53. Consider A30U A57U, for which the self-cleavage was found to be 0.13. The value for A31C U39C was 1.19; that for A31U U73A was 1.33; that for G32A U102A was 0.63. Turning to A31G U109C, the self-cleavage was found to be 0.79. For A30U A117G the value was 2.32; for A30G U132G, 1.93. For the variant A31U A64G, the self-cleavage is 0.2. Consider A31U G33C, for which the self-cleavage is 0.81.

On to A31G A59U, for which the self-cleavage worked out at 0.42. Consider A31G A59C, for which the self-cleavage came out at 1.53.

As for A31G A59G, the self-cleavage is 0.16. G32A G82A: the self-cleavage is 2.01.

As to A31G G35C, the self-cleavage is 1.15. On to A31C U104A, for which the self-cleavage stood at 2.67. Turning to A30G A92G, the self-cleavage stood at 0. For G33A the value was 1.14; for A30G A138G, 0.64; for G32A A78U, 1.32. With A31G A42G, the self-cleavage came to 0.96. For A30G U130A the value was 1.15. Regarding A31G C123U, the self-cleavage was determined as 1.02.

As to A30G A117G, the self-cleavage stood at 0.91. With A30G U96C, the self-cleavage worked out at 0.45. For A30G U96A, the self-cleavage amounted to 0.21. For A30U U87C, the self-cleavage is 0.23. In the case of U29G G70A, the self-cleavage was determined as 0.27. The value for A31U A138U was 1.4; that for G32A U112C was 1.36; that for G32A A79G was 1.26.

Consider A31G U85A, for which the self-cleavage is 0.11.

On to A31G U85C, for which the self-cleavage was 0.33. Turning to A31U A50G, the self-cleavage turned out to be 0.16. With A30G C103A, the self-cleavage amounted to 0.85.

Consider A30U U45G, for which the self-cleavage was 0.74. Take A31U A121U: the self-cleavage stood at 0.51. For the variant A31U A121G, the self-cleavage amounted to 1. A31C U100C: the self-cleavage was determined as 0.92.

Take A30U U46G: the self-cleavage worked out at 1.14.

For A30U U46C, the self-cleavage came to 1.12. Regarding A31G C145G, the self-cleavage came out at 1.63. On to A30U A50G, for which the self-cleavage came out at 2.04. A30U G82A: the self-cleavage worked out at 1.57. As to A30G U91C, the self-cleavage is 0.65. As for U29G U85C, the self-cleavage was 0.46.

As for A30U A42G, the self-cleavage was 0.99. For A31G A65G the value was 0; for A30C G35A, 1.51; for G32A A121G, 1.53.

Consider G32A A121U, for which the self-cleavage was found to be 1.45.

U29G U130C: the self-cleavage turned out to be 0.63. For A30G G83C the value was 0.66; for A30G U143A, 0.93; for A30G U143C, 1.06. Turning to A30C C113U, the self-cleavage is 1.32. On to A31G G114A, for which the self-cleavage was found to be 1.09. As to A30C U46C, the self-cleavage was 1.48. The value for A30U G32A was 0.89. As for G32A A107G, the self-cleavage was 1.09.

Regarding A31U A67G, the self-cleavage was 0.41.

As for A31U G88U, the self-cleavage is 0.15. Regarding G32A C68U, the self-cleavage came out at 0. For A31G A121G the value was 1.24; for A30G U104A, 0.61; for A31U A129U, 0.33. In the case of A30G A129G, the self-cleavage was 0.72. Consider A30G A129C, for which the self-cleavage came to 0. For the variant A30U G35A, the self-cleavage amounted to 1.07. As to A30G C110U, the self-cleavage came out at 1.25. As to A31G U46C, the self-cleavage worked out at 1.67. As to A30G U73G, the self-cleavage was 0.81.

Regarding A30G U73A, the self-cleavage is 1.19. With A31U U39C, the self-cleavage came to 0.73. Consider A31U U39G, for which the self-cleavage is 0.93.

Regarding A30G U109A, the self-cleavage worked out at 1.38. A30G U109C: the self-cleavage came out at 1.71. With A31G A142G, the self-cleavage is 1.17. The value for G32U U143C was 1.1; that for A30C A141G was 1.38. The value for A30G A140G was 0.99; that for A31G U73C was 0.77. Take A31G U73A: the self-cleavage came to 0.79.

As to A31G C110U, the self-cleavage turned out to be 0.51. On to A30C A140G, for which the self-cleavage stood at 1. The value for A31G U91A was 0.3; that for A31U G58A was 0.05. The value for G32U U91G was 0.1.

On to A30U U91C, for which the self-cleavage amounted to 0.56. For A31G A78G, the self-cleavage was found to be 0.96. For A30G A136G, the self-cleavage was 1.23. As to A31C C71A, the self-cleavage turned out to be 0.19.
